Here are results for 13 molecules from US20170044259A1 (CYTOMX THERAPEUTICS, published 2017).

Test [1] addresses T1, human PD-1-Fc (R and D systems, Minneapolis, Minn.) (human, UniProt Q15116 25-167).
T1 construct: bought; also called hPD-1-Fc; hPD-1; not shown: Fc part of the bought fusion
In words: plate ELISA on human PD-1-Fc; reference A1.4. In general terms: ELISA stands for enzyme-linked immunosorbent assay.

The target of test [2] is T2, mouse PD-1 expressed on HEK293 cells (mouse, UniProt Q02242 25-288).
T2 construct: whole, on cells; also called HEK293-mPD-1; mPD-1 HEK293 cells
T2 sequence (looked up): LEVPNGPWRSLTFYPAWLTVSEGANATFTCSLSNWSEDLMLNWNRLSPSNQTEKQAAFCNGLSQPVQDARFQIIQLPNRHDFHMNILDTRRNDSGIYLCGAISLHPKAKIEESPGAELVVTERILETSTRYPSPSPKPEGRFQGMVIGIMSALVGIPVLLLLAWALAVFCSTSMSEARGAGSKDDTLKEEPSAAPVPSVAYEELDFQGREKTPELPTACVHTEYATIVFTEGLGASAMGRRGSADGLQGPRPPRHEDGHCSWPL
In words: flow cytometry on mPD-1 HEK293 cells, titration from 150 nM. In general terms: Flow cytometry measures light scatter and fluorescence of single cells or particles in a stream.

For test [3], the target named is T1, human PD-1-Fc (R and D systems, …). As to the kind of experiment: plate ELISA on adsorbed human PD-1-Fc, single site saturation fit.
The target is the same in test [4]. In words: inhibition ELISA on human PD-1-Fc; competitor 2 nM biotinylated PD-L1 (hPDL1/Fc).
Test [5] has the same target. In words: inhibition ELISA on human PD-1-Fc; competitor 2 nM biotinylated PDL2 (hPDL2/Fc).
Test [6] shares this target. As to the kind of experiment: plate ELISA on human PD-1-Fc.

T1 sequence (Q15116 25-167 limits assumed): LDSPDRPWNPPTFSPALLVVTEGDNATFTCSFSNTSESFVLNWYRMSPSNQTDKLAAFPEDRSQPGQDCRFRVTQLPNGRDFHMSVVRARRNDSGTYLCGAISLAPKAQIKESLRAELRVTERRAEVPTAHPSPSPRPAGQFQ

B1: PD-1 1.4 PD001 2001 (antibody, human IgG4 S228P, kappa)
heavy: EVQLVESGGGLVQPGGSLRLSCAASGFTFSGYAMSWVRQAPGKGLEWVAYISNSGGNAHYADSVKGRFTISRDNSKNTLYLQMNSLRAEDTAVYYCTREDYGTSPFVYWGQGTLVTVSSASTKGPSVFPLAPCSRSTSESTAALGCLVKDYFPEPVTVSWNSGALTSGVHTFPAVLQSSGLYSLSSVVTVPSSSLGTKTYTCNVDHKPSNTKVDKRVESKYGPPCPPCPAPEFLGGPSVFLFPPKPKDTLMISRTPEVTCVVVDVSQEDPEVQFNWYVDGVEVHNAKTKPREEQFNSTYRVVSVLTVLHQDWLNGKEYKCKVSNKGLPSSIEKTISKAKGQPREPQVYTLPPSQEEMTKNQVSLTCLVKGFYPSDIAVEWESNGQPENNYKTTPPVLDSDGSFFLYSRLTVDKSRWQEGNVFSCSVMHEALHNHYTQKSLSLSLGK
light: QGQSGQGAMSGCSWSAFCPYLAGGGSSGGSISSGLLSGRSDNHGGGSDIQLTQSPSSLSASVGDRVTITCRASESVDSYGISFMNWFQQKPGKAPKLLIYAASNQGSGVPSRFSGSGSGTDFTLTISSMQPEDFATYYCQQSKDVPWTFGQGTKLEIKRTVAAPSVFIFPPSDEQLKSGTASVVCLLNNFYPREAKVQWKVDNALQSGNSQESVTEQDSKDSTYSLSSTLTLSKADYEKHKVYACEVTHQGLSSPVTKSFNRGEC
notes: hIgG4 S228P/hK; also called PD01 (A1.4)
For B1, in test [1], the “ME (masking efficiency, Kd of the activatable antibody divided by Kd of the parental antibody)” value amounted to 25.

B2: PD-1 1.4 PD009 2001 (antibody, human IgG4 S228P, kappa)
heavy: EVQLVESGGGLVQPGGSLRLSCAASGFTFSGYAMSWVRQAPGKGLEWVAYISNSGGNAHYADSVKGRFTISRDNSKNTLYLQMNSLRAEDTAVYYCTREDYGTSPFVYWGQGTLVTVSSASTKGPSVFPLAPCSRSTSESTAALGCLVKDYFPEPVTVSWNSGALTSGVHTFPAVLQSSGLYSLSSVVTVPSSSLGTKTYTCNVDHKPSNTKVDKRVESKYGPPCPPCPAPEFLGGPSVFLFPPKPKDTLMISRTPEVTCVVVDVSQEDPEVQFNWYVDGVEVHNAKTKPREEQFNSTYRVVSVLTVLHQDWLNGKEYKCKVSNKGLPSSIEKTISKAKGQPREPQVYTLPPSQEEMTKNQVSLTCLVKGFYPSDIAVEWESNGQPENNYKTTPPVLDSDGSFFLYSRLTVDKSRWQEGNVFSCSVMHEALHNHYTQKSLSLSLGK
light: QGQSGQGAPRTCYTYQCSSFYTGGGSSGGSISSGLLSGRSDNHGGGSDIQLTQSPSSLSASVGDRVTITCRASESVDSYGISFMNWFQQKPGKAPKLLIYAASNQGSGVPSRFSGSGSGTDFTLTISSMQPEDFATYYCQQSKDVPWTFGQGTKLEIKRTVAAPSVFIFPPSDEQLKSGTASVVCLLNNFYPREAKVQWKVDNALQSGNSQESVTEQDSKDSTYSLSSTLTLSKADYEKHKVYACEVTHQGLSSPVTKSFNRGEC
notes: also called PD09 (A1.4)
As to B2, the “ME (masking efficiency, Kd of the activatable antibody divided by Kd of the parental antibody)” value in test [1] is 2.

B3: J43v2 mIgG2a (antibody, V domains shown)
VH: EVRLLESGGGLVKPEGSLKLSCVASGFTFSDYFMSWVRQAPGKGLEWVAHIYTKSYNYATYYSGSVKGRFTISRDDSRSMVYLQMNNLRTEDTATYYCTRDGSGYPSLDFWGQGTQVTVSS
VL: YELTQPPSASVNVGETVKITCSGDQLPKYFADWFHQRSDQTILQVIYDDNKRPSGIPERISGSSSGTTATLTIRDVRAEDEGDYYCFSGYVDSDSKLYVFGSGTQLTVLG
notes: also called J43 m2a; J43v2 m2a
Take B3: in test [2], the binding result is reported as “binds”.

B4: m245-M3-MHC728 (antibody, V domains shown)
VH: EVKLVESGGGLVKPGGSLKLSCAASGFTFSNYAMSWVRQTPAKRLEWVAYISNGGGDTHYPDSLKGRFTVSRDNAKNTLYLQMSSLKSEDTAMYYCARENYGTSPFVYWGQGTLVTVSA
VL: not shown
notes: mouse hybridoma antibody, mIgG2a/K
The term Kd denotes the equilibrium constant for the complex coming apart. A higher Kd goes with a looser complex. B4 had a Kd in test [3] of 0.22 nM.

B5: m136-M13-MHC723 (antibody, V domains shown)
VH: EVKLVESGGGLVKPGGSLKLSCAASGFTFSGYAMSWVRQTPAKRLEWVAYISNSGGNAHYPDSVKGRFTISRDNAKNTLYLQMSSLRSEDTAMYYCTREDYGTSPFVYWGQGTLVTVSA
VL: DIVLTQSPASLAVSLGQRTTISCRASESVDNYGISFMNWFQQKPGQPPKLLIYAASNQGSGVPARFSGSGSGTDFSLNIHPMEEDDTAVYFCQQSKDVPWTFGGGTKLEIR
notes: mouse hybridoma antibody, mIgG1/K
Usually IC50 stands for the midpoint of a concentration-inhibition curve. In the case of B5, the IC50 came to 3.3 nM in test [4] and 2 nM in test [5]. For the same molecule, the Kd in test [3] is 0.19 nM.

B6: PD-1 1.4 PD003 2001 (antibody, human IgG4 S228P, kappa)
heavy: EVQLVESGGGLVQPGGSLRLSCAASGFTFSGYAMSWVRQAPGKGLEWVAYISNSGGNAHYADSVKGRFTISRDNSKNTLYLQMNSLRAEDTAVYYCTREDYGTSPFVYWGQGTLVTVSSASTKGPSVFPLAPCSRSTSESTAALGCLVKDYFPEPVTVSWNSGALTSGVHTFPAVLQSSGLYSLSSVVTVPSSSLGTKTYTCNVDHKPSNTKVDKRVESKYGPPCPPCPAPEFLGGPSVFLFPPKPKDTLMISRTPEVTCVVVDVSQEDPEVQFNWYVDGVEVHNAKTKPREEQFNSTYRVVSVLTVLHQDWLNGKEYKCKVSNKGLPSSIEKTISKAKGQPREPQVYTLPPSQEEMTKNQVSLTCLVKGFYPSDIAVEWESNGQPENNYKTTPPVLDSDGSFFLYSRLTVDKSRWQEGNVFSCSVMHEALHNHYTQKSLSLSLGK
light: QGQSGQGLVCPLYALSSGVCMGGGGSSGGSISSGLLSGRSDNHGGGSDIQLTQSPSSLSASVGDRVTITCRASESVDSYGISFMNWFQQKPGKAPKLLIYAASNQGSGVPSRFSGSGSGTDFTLTISSMQPEDFATYYCQQSKDVPWTFGQGTKLEIKRTVAAPSVFIFPPSDEQLKSGTASVVCLLNNFYPREAKVQWKVDNALQSGNSQESVTEQDSKDSTYSLSSTLTLSKADYEKHKVYACEVTHQGLSSPVTKSFNRGEC
notes: also called PD03 (A1.4)
In the case of B6, the “ME (masking efficiency, Kd of the activatable antibody divided by Kd of the parental antibody)” value in test [1] turned out to be 5.

B7: PD-1 1.4 PD010 2001 (antibody, human IgG4 S228P, kappa)
heavy: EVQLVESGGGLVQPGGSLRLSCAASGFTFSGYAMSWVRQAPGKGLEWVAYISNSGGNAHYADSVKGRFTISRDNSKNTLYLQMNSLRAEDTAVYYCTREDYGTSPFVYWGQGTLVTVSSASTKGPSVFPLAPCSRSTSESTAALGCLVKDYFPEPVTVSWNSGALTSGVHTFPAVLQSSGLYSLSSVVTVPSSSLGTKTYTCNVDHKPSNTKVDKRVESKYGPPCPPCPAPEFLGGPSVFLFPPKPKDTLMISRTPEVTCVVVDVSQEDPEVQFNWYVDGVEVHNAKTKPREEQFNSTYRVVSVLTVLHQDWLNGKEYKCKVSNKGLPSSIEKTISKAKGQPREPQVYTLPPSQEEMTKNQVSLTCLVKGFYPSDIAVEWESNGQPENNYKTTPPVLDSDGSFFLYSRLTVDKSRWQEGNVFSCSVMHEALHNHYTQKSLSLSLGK
light: QGQSGQGGLCSWYLSSSGLCVDGGGSSGGSISSGLLSGRSDNHGGGSDIQLTQSPSSLSASVGDRVTITCRASESVDSYGISFMNWFQQKPGKAPKLLIYAASNQGSGVPSRFSGSGSGTDFTLTISSMQPEDFATYYCQQSKDVPWTFGQGTKLEIKRTVAAPSVFIFPPSDEQLKSGTASVVCLLNNFYPREAKVQWKVDNALQSGNSQESVTEQDSKDSTYSLSSTLTLSKADYEKHKVYACEVTHQGLSSPVTKSFNRGEC
notes: also called PD-10 (A1.4); PD10 (A1.4)
For the molecule B7, the “ME (masking efficiency, Kd of the activatable antibody divided by Kd of the parental antibody)” value in test [1] stood at 13.

B8: PD-1 1.4 PD008 2001 (antibody, human IgG4 S228P, kappa)
heavy: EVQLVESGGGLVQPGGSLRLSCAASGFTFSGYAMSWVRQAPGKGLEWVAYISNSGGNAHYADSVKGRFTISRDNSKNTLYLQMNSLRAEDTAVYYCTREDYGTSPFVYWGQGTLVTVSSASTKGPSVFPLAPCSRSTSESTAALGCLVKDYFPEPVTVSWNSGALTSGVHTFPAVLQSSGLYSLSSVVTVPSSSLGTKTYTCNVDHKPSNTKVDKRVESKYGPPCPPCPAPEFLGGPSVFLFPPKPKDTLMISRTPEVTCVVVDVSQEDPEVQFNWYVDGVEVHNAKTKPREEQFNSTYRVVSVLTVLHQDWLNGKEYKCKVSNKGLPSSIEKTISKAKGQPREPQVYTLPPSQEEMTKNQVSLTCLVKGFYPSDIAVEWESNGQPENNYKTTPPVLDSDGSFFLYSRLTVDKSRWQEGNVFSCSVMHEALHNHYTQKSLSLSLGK
light: QGQSGQGETCNQYERSSGLCFAGGGSSGGSISSGLLSGRSDNHGGGSDIQLTQSPSSLSASVGDRVTITCRASESVDSYGISFMNWFQQKPGKAPKLLIYAASNQGSGVPSRFSGSGSGTDFTLTISSMQPEDFATYYCQQSKDVPWTFGQGTKLEIKRTVAAPSVFIFPPSDEQLKSGTASVVCLLNNFYPREAKVQWKVDNALQSGNSQESVTEQDSKDSTYSLSSTLTLSKADYEKHKVYACEVTHQGLSSPVTKSFNRGEC
notes: also called PD08 (A1.4)
Take B8: the “ME (masking efficiency, Kd of the activatable antibody divided by Kd of the parental antibody)” value in test [1] came out at 13.

B9: m245-M5-MHC729 (antibody, V domains shown)
VH: EVQLVESGGGLVKSGGSLKLSCAHSGFSFSSYDMSWVRQTPAKRLEWVATISGGGRYTYYPDSVKGRFTISRDNAKNTLYLQMSGLRSEDTAMYYCASNYYGFDYWGQGTTLTVSS
VL: DIVMTQSHKFMSTSVGDRVSITCKASQDVGTAVAWYQQKPGQSPKLLIYWASTRHTGVPDRFTGSGSGTDFTLTISNVQSEDLADYFCQQYSSYPWTFGGGTKLEIK
notes: as for B5
B9 had a Kd in test [3] of 0.34 nM.

B10: PD-1 1.4 PD002 2001 (antibody, human IgG4 S228P, kappa)
heavy: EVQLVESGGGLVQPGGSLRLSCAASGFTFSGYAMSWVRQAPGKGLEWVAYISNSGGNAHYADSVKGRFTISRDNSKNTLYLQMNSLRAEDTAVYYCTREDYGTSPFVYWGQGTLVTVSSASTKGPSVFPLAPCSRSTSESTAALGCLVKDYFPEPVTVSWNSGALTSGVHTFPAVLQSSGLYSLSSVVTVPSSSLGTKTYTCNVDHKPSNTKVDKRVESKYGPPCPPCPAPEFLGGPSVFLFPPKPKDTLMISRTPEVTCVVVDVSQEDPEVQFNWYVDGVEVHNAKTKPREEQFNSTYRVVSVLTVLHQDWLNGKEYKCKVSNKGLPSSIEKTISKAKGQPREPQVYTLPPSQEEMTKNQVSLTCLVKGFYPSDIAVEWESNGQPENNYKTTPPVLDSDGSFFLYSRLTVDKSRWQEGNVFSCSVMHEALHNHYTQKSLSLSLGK
light: QGQSGQGDVNCAIWYSVCTTVPGGGSSGGSISSGLLSGRSDNHGGGSDIQLTQSPSSLSASVGDRVTITCRASESVDSYGISFMNWFQQKPGKAPKLLIYAASNQGSGVPSRFSGSGSGTDFTLTISSMQPEDFATYYCQQSKDVPWTFGQGTKLEIKRTVAAPSVFIFPPSDEQLKSGTASVVCLLNNFYPREAKVQWKVDNALQSGNSQESVTEQDSKDSTYSLSSTLTLSKADYEKHKVYACEVTHQGLSSPVTKSFNRGEC
notes: also called PD02 (A1.4)
With B10, in test [1], the “ME (masking efficiency, Kd of the activatable antibody divided by Kd of the parental antibody)” value was 18.

B11: m136-M14-MHC724 (antibody, V domains shown)
VH: KVMLVESGGDLVKPGGSLKLSCAASGFTFSSYGMSWVRQTPEKRLEWVATISGGGRDIYYADTVKGRFTISRDNAKNTLYLQMSSLRSEDTALYFCARLYLGFDYWGQGTTLTVSS
VL: DIQMTQSPASQSASLGESVTITCLASQTIGTWLAWYQQKPGKSPQLLIYAATSLADGVPSRFSGSGSGTKFSFKISSLQAEDFVSYYCQQLYSIPWTFGGGTKLEIK
notes: as for B4
B11: the values for the IC50 in test [4] and in test [5] were 4.8 nM and 2.8 nM, respectively. In test [3], this molecule showed a dissociation constant Kd of 0.19 nM.

B12: m136-M19-MHC725 (antibody, V domains shown)
VH: EVQLQQSGPELVKPGDSVKMSCKASGYTFTDYYMDWVKQSHGKSLEWIGYIYPKNGGSSYNQKFKGKATLTVDKSSSTAYMELHSLTSEDSAVYYCARKVVATDYWGQGTTLTVSS
VL: DIVMSQSPSSLAVSVGEKVTMSCKSSQSLLYSSNQKNYLAWYQQKPGQSPKLLIFWASIRESGVPDRFTGSGSGTDFTLTISSVKAEDRAVYYCQQCDSYPWTFGGGTKLEIK
notes: mouse hybridoma antibody, mIgG2b/K
B12 came in with a Kd in test [3] of 0.23 nM.

B13: D4 (antibody, human IgG4 S228P, kappa, V domains shown)
VH: EVQLVESGGGLVQPGGSLRLSCAHSGFSFSSYDMSWVRQAPGKGLEWVATISGGGRYTYYADSVKGRFTISRDNSKNTLYLQMNSLRAEDTAVYYCASNYYGFDYWGQGTLLTVSS
VL: DIQMTQSPSSLSASVGDRVTITCKASQDVGTAVAWYQQKPGKAPKLLIYWASTRHTGVPSRFSGSGSGTDFTLTISSVQPEDFATYYCQQYSSYPWTFGQGTKLEIKR
notes: humanized, full length hIgG4/hKappa
As for B13, the binding result in test [6] is recorded as “binds”.
